Results reported in publication PMC7810988 (2019).

Biological target: T1, OsSPX4^1–321 (rice, UniProt Q10B79 1-320)
T1 chain: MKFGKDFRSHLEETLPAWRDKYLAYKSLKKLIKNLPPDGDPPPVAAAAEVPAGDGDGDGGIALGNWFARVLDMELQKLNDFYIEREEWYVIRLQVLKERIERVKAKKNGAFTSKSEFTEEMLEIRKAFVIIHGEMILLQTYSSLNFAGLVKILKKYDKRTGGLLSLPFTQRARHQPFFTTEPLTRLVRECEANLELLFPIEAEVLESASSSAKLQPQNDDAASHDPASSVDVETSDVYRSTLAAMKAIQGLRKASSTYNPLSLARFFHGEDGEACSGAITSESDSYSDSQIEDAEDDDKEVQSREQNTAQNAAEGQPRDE
Assay: ITC; 5PP-InsP5 (InsP7) 100 uM

Kd: 3.05 µM
B1: full-length OsPHR2 (OsPHR2^1-426, wild type) (natural protein)
chain: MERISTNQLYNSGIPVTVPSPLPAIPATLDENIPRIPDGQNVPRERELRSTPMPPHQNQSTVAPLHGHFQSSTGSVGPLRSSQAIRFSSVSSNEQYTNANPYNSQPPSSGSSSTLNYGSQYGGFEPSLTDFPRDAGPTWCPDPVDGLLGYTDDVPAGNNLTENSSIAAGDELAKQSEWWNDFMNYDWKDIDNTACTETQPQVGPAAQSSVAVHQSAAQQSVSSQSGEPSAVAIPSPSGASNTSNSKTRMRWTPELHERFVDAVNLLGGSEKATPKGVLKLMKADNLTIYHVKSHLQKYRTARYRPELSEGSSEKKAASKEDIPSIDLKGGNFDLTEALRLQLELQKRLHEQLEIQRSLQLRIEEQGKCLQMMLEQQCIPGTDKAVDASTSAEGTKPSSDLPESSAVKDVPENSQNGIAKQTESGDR
